Reference: the DeepSol protein solubility set

Experiment: soluble on expression in E. coli; label from the status in PepcDB or PDB records
With “YQNYGIMAAIDHINALKDLVKRFPKFADLPKIYGGGSYGGYLSLLIAKIAPWYVDGVIDNSGVCLPFLACILGREMNQGEFYFEGSGYRLYCFVYKYWNRNMNSSYYFGDENYLIRAVLNSNHLQIQSNLNKNTIFVSYHSIQDMGAPVQNKIELYKCYQELGYDATLHLIKDEN” the “soluble on expression in E. coli” value was “not soluble”. For “MGSDKIHHHHHHMPMNIVQVIPSFNVGGGELLAVRLCAEIKNQRPDYKVTLISLYDPIPSIVYDEALASDAQIVTLGKKKGFDPFTPLRMLKTLRAIKPDVIHTHLAGLRYTLLAGVLGNYSLKVHTVHNLATHETFGFLKNVHRVAFKFFSWIPVSLSKEVQDSVRDMYCLESVIVNNGIKTNSEIINKSKEDIRKHYGLPLNSKIIITIGRLCTQKNQLLLIESFNKVCKNAENYTLLIVGEDNLNGSYKNKIDKIISELPDITRENLHLLGPRKDIPELLIASDVFVLSSDWEGVPLTLLEAMGYGTPVVCTSVGGIPDVIEHGFDGLLVSKGDSKSLGNAIIEVLSNNSFASSLAHNARKKFSQLYSIEMTAEKYLQLYNA”, the “soluble on expression in E. coli” value was “not soluble”. For “MGSDKIHHHHHHMTMTDERPVLVATEADDITADMVITELNRRDVPVVRFNLADIGEGLTVSARFGTCPAPVVGQVRTSSRTADLTRVRSVYWRRPEWPSFPHLSPDDSRFAAAQVRYGLGGTLYALDHPLWVNHPLRIAAADYKPAQLALAQQLGFTIPTTLVTNDPAEAREFIRTQGDVIFKTLRWTPYTRDGVPVTGWADPVTADEIDDNVRITPHLFQARVDKVTDLRVLIVGQHTFAVRIDSELLDWRRDYSVLTYTVEHLPDSVDKALHAYLDRLELVSGSFDLTVDRAGVYWWLELNPNGQWGWLEKETGLPMSAAFADLLVQGDRQ”, the “soluble on expression in E. coli” value was “not soluble”. In the case of “AHHHHHHGSKKKYKKVVVGGTFDRLHLGHKALLRKAFEVGEIVYIGLTSDEMIKEKQYSERILPYEKRLLDLIKFLEVNKYRNYRIMKIHNAIGFTTKIKSLEAIVVSEETYKGAVLVNKAREELGLRPLDIVVIPIIRSRLGCKISSSLIRAGLIDPFGNPIRREEK”, the “soluble on expression in E. coli” value is reported as “not soluble”. With “MGSDKIHHHHHHMDIKQLQYLCNLEKERHFGRAAEASFVSQPTLSMRLKNLERELDLALINRGNNFEGFTAEGERVLAWAREIVSVYQGLKLEVASLKRGVSGVLRIGAVPQSSIALSSLLAAVNKEYPQLDFQISLFSADQLLEALNAHSVDVGIGFFEFSTLQELHFQASPLTEQGVDLLFHPHHFPQLVGDAPLALDALSDVPLCLAEASRYFRRYLDSHFREMGVSPWVKVESASVLQLIQSVYVGLGCGIVPHGSLIPEMTPALTLRPLQFPPMRRQPAVVIAQAGRATALAQNFFDVAQEWLQAQS” the “soluble on expression in E. coli” value was “not soluble”. In the case of “SLKGLKAYRLDVPPMLADRGIDRMLAFAVPLTVRFRGIKVREGTLLHGPEGWGEWSPFWDYDPVESASWLRAGIEGATRRLPVARRDRVPINVTIPVVDADRAGRMAAESACLTAKVKVADPRSDLREDCRRVAAVREAMPDGHIRVDANTAWDVDAAVRAITELDAAAEGLEYVEQPCASVAELAQVRRKVNVPVAADESVRRAEDPLAVARAGAADLLIVKAQPLGGVARALEVIDATGLPAVVSSALDTSIGIGLATYLAAALPSLDHACGLGTIRLFQGDVSASPLLPVDGYLRPRRGEVDVEVEESDTDLCPRWSQRLALTVAALVERERS”, the “soluble on expression in E. coli” value is reported as “not soluble”. With “MGSDKIHHHHHHMSLAVVYSRASMGVQAPLVTIEVHLSNGKPAFTLVGLPEKTVTEAQGRVRSALLNAQFKYPAKRITVNLAPADLPKEGGRFDLPIALGILAASEQINAKKLQQFEFVAELALTGELRGVHGVIPAILAGQKSKRQLIVAQQNANEASLVSQHETFFARNLLEVVQFLNDDSSLPSSTTLCMQSAVDFSPQSNKDLTDIIGQQHAKRALMIAAAGQHNLLFLGPPGTGKTMLASRLTGLLPDMTDQEAIETASVTSLVQNELNFQNWKQRPFRAPHHSASSPALVGGGTIPKPGEISLAHNGVLFLDELPEFERRVLDALRQPLESGEIIISRANAKIQFPARFQLVAAMNPSPTGHYTGIHNRTSPQQVLRYLNRLSGPFLDRFDLSIEVPLLPQGALQNTEDRGETTAQVKEKVLRVREIQLARAGKVNAYLTGKEIERDCKLTEQDALFLENTLTRLGLSVRAYHRILKVARTIADLNGDSDIKQNHLAEALSYRAMDRLLRKLSDQ” the “soluble on expression in E. coli” value was “not soluble”.
